# Data reported in US20240034816A1 (Sanofi, published 2024).
# Where “and” joins values, the source holds several entries; their conditions need not be identical. Identical values can stand only once.
# B1: NKp46-BCMA_Fc-ADE-DSB NKCE (bispecific antibody, human IgG1, kappa)
# light: QTVVTQEPSLTVSPGGTVTLTCASSTGTVTPSNYANWVQQKPGQAFRGLIGDNNSRPPGTPARFSASLLGGKAALTLSGVQPEDEAEYYCALWFGNQWVFGGGTKLTVLGGGGSGGGGSDIQMTQSPSSLSASVGDRVTITCRASQDISNYLNWYQQKPGKAPKLLIYYTSRLHSGVPSRFSGSGSGTDFTFTISSLQPEDIATYFCQQGNTRPWTFGGGTKVEIKGGGGSGGGGSRTVAAPSVFIFPPSDEQLKSGTASVVCLLNNFYPREAKVQWKVDNALQSGNSQESVTEQDSKDSTYSLSSTLTLSKADYEKHKVYACEVTHQGLSSPVTKSFNRGEC
# heavy: QVQLVQSGAEVKKPGSSVKVSCKASGYTFSDYVINWVRQAPGQGLEWMGEIYPGSGTNYYNEKFKAKATITADKSTSTAYMELSSLRSEDTAVYYCARRGRYGLYAMDYWGQGTTVTVSSQVQLVESGGGVVQPGRSLRLSCAASGFTFSNFGMHWVRQAPGRGLEWVAVIWSDETNRYYADSVKGRFTVSRDNVKSTVYLQMNSLISEDTAVYYCARDQQYCSSDSCFTWFDPWGQGTLVTVSSASTKGPSVFPLAPSSKSTSGGTAALGCLVKDYFPEPVTVSWNSGALTSGVHTFPAVLQSSGLYSLSSVVTVPSSSLGTQTYICNVNHKPSNTKVDKKVEPKSCDKTHTCPPCPAPELLAGPDVFLFPPKPKDTLMISRTPEVTCVVVDVSHEDPEVKFNWYVDGVEVHNAKTKPCEEQYNSTYRCVSVLTVLHQDWLNGKEYKCKVSNKALPAPEEKTISKAKGQPREPQVYTLPPCRDELTKNQVSLWCLVKGFYPSDIAVEWESNGQPENNYKTTPPVLDSDGSFFLYSKLTVDKSRWQQGNVFSCSVMHEALHNHYTQKSLSLSPG
# chain: DKTHTCPPCPAPELLAGPDVFLFPPKPKDTLMISRTPEVTCVVVDVSHEDPEVKFNWYVDGVEVHNAKTKPCEEQYNSTYRCVSVLTVLHQDWLNGKEYKCKVSNKALPAPEEKTISKAKGQPREPQVCTLPPSRDELTKNQVSLSCAVKGFYPSDIAVEWESNGQPENNYKTTPPVLDSDGSFFLVSKLTVDKSRWQQGNVFSCSVMHEALHNRFTQKSLSLSPG
# Columns and labels:
# [1] = molecular target: T1, human CD64 (human FcγRI) (human, UniProt P12314 16-292, limits assumed); test: SPR, fit 1:1 Binding, Exp No 2
# T1 construct: also called HuFcyRI
# T1 sequence (P12314 16-292 limits assumed): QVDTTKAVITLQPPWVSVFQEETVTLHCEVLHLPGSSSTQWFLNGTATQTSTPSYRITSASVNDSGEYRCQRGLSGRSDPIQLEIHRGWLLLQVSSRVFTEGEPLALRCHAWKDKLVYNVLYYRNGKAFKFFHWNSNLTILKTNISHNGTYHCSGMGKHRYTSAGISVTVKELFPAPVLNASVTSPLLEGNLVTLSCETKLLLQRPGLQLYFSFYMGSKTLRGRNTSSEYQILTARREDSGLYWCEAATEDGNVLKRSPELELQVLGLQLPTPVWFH
# [2] = molecular target: T2, recombinant human NKp46 extracellular domain (Gln22-Asn255) with C-terminal 6xHis tag (human, UniProt O76036 22-255); test: SPR (Biacore 8K), NKCE captured by anti-human Fc, antigen as analyte, 1:1 model; Experiment No 3
# T2 construct: range 22-255; also called huNKp46
# T2 sequence (O76036 other isoform, or with tags, fused parts or gaps limits assumed): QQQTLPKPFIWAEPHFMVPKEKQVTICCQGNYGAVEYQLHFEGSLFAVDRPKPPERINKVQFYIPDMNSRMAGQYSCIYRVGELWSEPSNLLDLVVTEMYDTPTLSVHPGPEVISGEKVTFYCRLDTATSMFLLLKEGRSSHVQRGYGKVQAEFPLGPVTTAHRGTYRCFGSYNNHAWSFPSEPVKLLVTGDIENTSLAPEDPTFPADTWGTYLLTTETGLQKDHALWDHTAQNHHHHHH
# Protocol: (§1) Measurements were performed in multicycle kinetics experiments for each antibody using a Biacore 8K instrument. In each multicycle experiment the antibodies were captured via an anti-hum a Fc antibody immobilized on a series S CM5 sensor chip (human antibody capture kit, Cytiva, Uppsala, Catalog No. BR1008-39).
# (§2) The antigens, diluted as described above (concentration range 0.1 nM to 50 nM), were injected at a flow rate of 60 μL/min for 240 sec followed by a dissociation phase of 400 sec. All analyte concentrations were run in duplicate together with multiple buffer blanks for double referencing. Regeneration of the capture surface was performed with regeneration solution (3 mol/L MgCl2) for 60 sec at 30 μL/min. Binding kinetics data were evaluated with the Biacore 8K Evaluation Software version 1.1.1.7442 using a 1:1 binding model with mass transport limitation.
# [3] = molecular target: T3, recombinant human BCMA (human, UniProt Q02223 1-54); test: as above
# Protocol: as §1, §2
# Target sequence in this assay (Q02223 1-54 limits assumed): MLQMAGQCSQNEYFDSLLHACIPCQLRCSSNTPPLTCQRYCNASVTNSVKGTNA
# [4] = molecular target: T4, recombinant cynomolgus NKp46 extracellular domain with C-terminal Flag-M2 tag (cynomolgus, UniProt Q95JB9 22-254); test: as above
# T4 construct: range 22-254; also called cyno NKp46; not shown: C-terminal Flag-M2 tag
# T4 sequence (Q95JB9 22-254): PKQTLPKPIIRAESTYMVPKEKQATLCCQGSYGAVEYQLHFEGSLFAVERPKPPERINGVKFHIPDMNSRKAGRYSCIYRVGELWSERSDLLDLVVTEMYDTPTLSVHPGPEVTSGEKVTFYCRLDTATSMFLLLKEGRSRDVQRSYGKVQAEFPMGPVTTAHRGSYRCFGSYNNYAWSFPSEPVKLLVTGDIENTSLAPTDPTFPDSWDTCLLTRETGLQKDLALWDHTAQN
# Protocol: as §1, §2
# [5] = molecular target: T5, cyno BCMA (PPB-17990) (cynomolgus, UniProt A0A2K5UD97 1-53); test: as above
# T5 construct: also called cynomolgus BCMA
# T5 sequence (A0A2K5UD97 entry or part of it): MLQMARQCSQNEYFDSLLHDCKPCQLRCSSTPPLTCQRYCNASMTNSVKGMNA
# Protocol: as §1, §2
# [6] = molecular target: T2, recombinant human NKp46 extracellular …; test: SPR (Biacore 8K), NKCE captured by anti-human Fc, antigen as analyte, 1:1 model; Experiment No 2
# Protocol: as §1, §2
# [7] = molecular target: T3, recombinant human BCMA; test: as above
# Protocol: as §1, §2
# [8] = molecular target: T4, recombinant cynomolgus NKp46 …; test: as above
# Protocol: as §1, §2
# [9] = molecular target: T5, cyno BCMA (PPB-17990); test: as above
# Protocol: as §1, §2
# [10] = molecular target: T6, human NKp46 on NK cells purified from PBMC of healthy donors (human, UniProt O76036 22-304); test: flow cytometry titration on resting human NK cells from healthy donors, detection with goat anti-human IgG Fcγ-PE; representative titration; NK cells also carry CD16a
# T6 construct: whole, on cells; also called NKp46 on donor NK cells
# T6 sequence (O76036 22-304): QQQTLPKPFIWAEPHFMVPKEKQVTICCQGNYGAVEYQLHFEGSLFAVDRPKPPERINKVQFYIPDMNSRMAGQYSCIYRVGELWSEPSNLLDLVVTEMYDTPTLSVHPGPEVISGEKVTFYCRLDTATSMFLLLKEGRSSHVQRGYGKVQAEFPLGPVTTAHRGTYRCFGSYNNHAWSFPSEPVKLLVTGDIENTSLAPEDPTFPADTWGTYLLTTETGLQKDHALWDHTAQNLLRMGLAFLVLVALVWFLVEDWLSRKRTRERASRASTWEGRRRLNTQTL
# Protocol: (§3) After staining, cells were resuspended in BD Cellfix and analyzed by flow cytometry. Parameters were recorded and analysed with FlowJo software. Staining EC50 values were calculated with GraphPad prism using 4 parameter logistics non-linear regression model.
# [11] = molecular target: T7, human CD16a (human FcγRIIIA), V isoform (human, UniProt P08637 17-208); test: SPR, fit Two State Reaction, mean of 3 experiments
# T7 construct: also called HuFcyRIIIaV; CD16a (V176)
# T7 sequence (P08637 17-208 F176V limits assumed): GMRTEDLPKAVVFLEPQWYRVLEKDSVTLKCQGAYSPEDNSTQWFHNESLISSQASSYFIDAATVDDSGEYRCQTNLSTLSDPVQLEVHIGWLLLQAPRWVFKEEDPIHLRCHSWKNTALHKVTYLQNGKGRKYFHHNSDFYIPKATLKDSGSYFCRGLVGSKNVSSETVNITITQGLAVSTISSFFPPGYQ
# [12] = molecular target: T8, cynomolgus CD16 (cynomolgus, UniProt Q8SPW2 17-208); test: SPR, fit Two State Reaction, mean of 3 experiments
# T8 construct: also called CyFcyRIII
# T8 sequence (Q8SPW2 17-208): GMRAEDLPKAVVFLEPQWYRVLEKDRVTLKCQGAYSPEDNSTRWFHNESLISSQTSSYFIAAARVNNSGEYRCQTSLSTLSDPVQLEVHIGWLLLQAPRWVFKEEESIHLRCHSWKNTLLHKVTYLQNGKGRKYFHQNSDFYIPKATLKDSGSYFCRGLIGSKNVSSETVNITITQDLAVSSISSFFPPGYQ
# [13] = molecular target: T7, human CD16a (human FcγRIIIA), V isoform; test: SPR (Biacore T200), His-tagged huCD16a captured by anti-His antibody on CM5 chip, antibody injected at 5.8-3000 nmol/L, steady state fit
# From the text: All analyte concentrations were run in duplicate together with multiple buffer blanks for double referencing.
# [14] = molecular target: human neonatal Fc receptor (FcRn) (human, UniProt P55899 24-297; P61769 21-119); test: SPR, binding to huFcRn at pH 6.0
# Chain of human neonatal Fc receptor (FcRn) (P55899 24-297 limits assumed, chain 1 of 2): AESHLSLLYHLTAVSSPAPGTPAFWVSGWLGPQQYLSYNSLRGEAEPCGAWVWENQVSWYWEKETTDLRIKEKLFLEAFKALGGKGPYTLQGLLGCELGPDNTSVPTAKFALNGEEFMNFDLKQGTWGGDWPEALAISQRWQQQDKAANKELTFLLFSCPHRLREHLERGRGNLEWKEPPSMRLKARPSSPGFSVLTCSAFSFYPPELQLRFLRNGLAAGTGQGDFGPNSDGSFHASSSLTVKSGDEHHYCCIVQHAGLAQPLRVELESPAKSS
# Chain of human neonatal Fc receptor (FcRn) (P61769 21-119 limits assumed, chain 2 of 2): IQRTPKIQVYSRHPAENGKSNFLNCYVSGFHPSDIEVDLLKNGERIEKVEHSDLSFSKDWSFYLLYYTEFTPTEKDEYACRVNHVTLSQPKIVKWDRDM
# [15] = molecular target: T6, human NKp46 on NK cells purified from …; test: flow cytometry titration on resting human NK cells from healthy donors, detection with goat anti-human IgG Fcγ-PE, 4-parameter fit; NK cells also carry CD16a
# Protocol: as §3
# [16] = molecular target: T7, human CD16a (human FcγRIIIA), V isoform; test: SPR, fit Two State Reaction, Exp No 2
# [17] = molecular target: T8, cynomolgus CD16; test: SPR, fit Two State Reaction, Exp No 2
binder,measurement,setting,value
B1,Kd,[1],0.27 nM
same,Kd,[2],12.5 nM
same,koff,[2],0.0018 s⁻¹
same,kon,[2],140000 M⁻¹ s⁻¹
same,Kd,[3],0.3 nM
same,koff,[3],5.7e-05 s⁻¹
same,kon,[3],190000 M⁻¹ s⁻¹
same,Kd,[4],17.8 nM
same,koff,[4],0.0033 s⁻¹
same,kon,[4],190000 M⁻¹ s⁻¹
same,Kd,[5],0.3 nM
same,koff,[5],6e-05 s⁻¹
same,kon,[5],180000 M⁻¹ s⁻¹
same,Kd,[6],13.2 nM
same,koff,[6],0.0018 s⁻¹
same,kon,[6],140000 M⁻¹ s⁻¹
same,Kd,[7],0.2 nM
same,koff,[7],6.9e-05 s⁻¹
same,kon,[7],320000 M⁻¹ s⁻¹
same,Kd,[8],16.2 nM
same,koff,[8],0.0034 s⁻¹
same,kon,[8],210000 M⁻¹ s⁻¹
same,Kd,[9],0.3 nM
same,koff,[9],5.8e-05 s⁻¹
same,kon,[9],180000 M⁻¹ s⁻¹
same,EC50 (read off the curve),[10],~0.9 µg/mL
same,Kd,[11],13.4 nM
same,Kd,[12],11.7 nM
same,Kd,[13],165 nM
same,Kd,[14],756 nM
same,EC50,[15],0.585 µg/mL and 0.863 µg/mL and 0.481 µg/mL
same,Kd,[16],12.1 nM
same,Kd,[17],9.3 nM
